In PMC11566000:

Molecular target: T1, SloR (purified native) (UniProt I6L923 1-217)
T1 sequence: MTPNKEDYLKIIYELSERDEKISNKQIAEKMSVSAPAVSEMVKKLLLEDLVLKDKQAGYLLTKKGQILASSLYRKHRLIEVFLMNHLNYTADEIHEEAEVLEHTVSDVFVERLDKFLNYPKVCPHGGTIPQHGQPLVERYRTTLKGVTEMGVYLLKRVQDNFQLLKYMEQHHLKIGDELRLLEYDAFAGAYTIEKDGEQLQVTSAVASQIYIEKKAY
Assay: BLI

B1: mntH.22.SRE3.WT (dsDNA)
DNA 1: CAGTAATTCTTACAAACTCTTT
DNA 2: AAAGAGTTTGTAAGAATTACTG
B1: no binding.
